Experimental data reported in patent publication US8557971B2, “Chimeric viral envelopes” (Aarhus Universitet, priority 2006, dated 2013).
Where a chain is given by its changes, count along the chain named.

Columns and labels:
APJ = APJ (Homo sapiens (Human), UniProt P35414); experiment: cell-based or functional assay
[1] = biological target: polytropic Xpr1 receptor on NIH3T3 murine cells (murine, UniProt Q9Z0U0); experiment: cell-based or functional assay
D17 APJ = experiment: Titer on D17 cells expressing APJ; format: cell-based, dog; details: for Titer, D17 APJ: Titer Experiment 1, D17 cells expressing APJ
Method: (§1) Transfections were done by calcium phosphate precipitation method, described by Graham and van der Eb (Graham and van der Eb, 1973) leaving the calcium precipitate on the cells for 24 hours. 293T cells were transfected using 8 μg of envelope expression plasmid, 2 μg gagpol expression plasmid (Morita et al., 2000) and 1 μg of an EGFP expressing plasmid. EGFP was included as a visual aid to determine the success of transfections. Medium on the transfected cells was renewed every day until it was used for transduction, usually between 48 and 72 hours after transfection, depending on the number of green fluorescing cells.
(§2) The day before transduction, medium was changed from fetal calf serum to newborn calf serum containing medium. Semi-packaging cells (Bahrami et al., 2003) were seeded at concentration of 10^4 cells/cm^2 24 hours before transduction.
(§3) Supernatant from transfected cells was filtered (0.22μ). The supernatant with 6 μg/mL polybrene was added to the target cells. 24 hours later, the infected cells were selected using medium described before containing 600 μg/mL G418 for 10 days.
The ability of redirecting the retroviral fusion machinery to a desired receptor would have wide biotechnological and potentially also nanotechnological applications. However, the regulatory mechanisms that interconnect receptor binding with fusion are poorly understood, which has made intelligent engineering of the envelope protein difficult. […] Using the envelope protein of the SL3-2 murine leukemia virus isolate (Pedersen et al., 1981) as a backbone and insertion of the 13 amino acid peptide ligand apelin by structure based design, we achieved efficient membrane fusion in a manner dependent upon APJ, the receptor for apelin (Fan et al., 2003; Kawamata et al., 2001) (FIG. 12). APJ belongs to the large family of G-protein-coupled receptors (GPCRs) involved in cell signaling with more than 1000 members in man (Puffer et al., 2000). All GPCRs are characterized by having 7 transmembrane helices (7-TM). Some of the receptors respond to peptide ligands such as apelin. […]

NIH 3T3 MCF 247 = experiment: Titer on NIH 3T3 cells infected with MCF 247 (blocked polytropic receptor); format: cell-based, mouse; details: Titer Experiment 1; NIH 3T3 infected with MCF 247
Method: FIG. 24. The SL3-2 chimeric envelopes can use two different receptors. […] NIH3T3: Murine cells, NIH3T3+MCF247: murine cells infected with MCF247, thus having a blocked polytropic receptor, D17: Dog cells, D17-APJ: Dog cells expressing APJ, D17-APJ-6 uM Apelin 13: Dog cells expressing APJ incubated with 6 uM apelin-13 peptide for 1 h.
as §1, §2
Supernatant from transfected cells was filtered (0.22μ). The supernatant with 6 μg/mL polybrene was added to the target cells. […]

NIH 3T3 = experiment: Titer (transduction) of chimeric envelope constructs on NIH 3T3 cells; format: cell-based, mouse; details: Titer Experiment 1; NIH 3T3 mouse cells
Method: as §1, §2, §3

D17 = experiment: Titer on D17 dog cells; format: cell-based; details: for Titer, D17: Titer Experiment 1, D17 dog cells
Method: as §1, §2, §3

human cells = experiment: Infection of human cells; format: cell-based; details: qualitative

B1: SL3-2/apelin chimeric envelope polypeptide 'AP165 RT' (other)
chain: VQHDSPHQVFNVTWRVTNLMTGQTANATSLLGTMTDAFPKLYFDLCDLIGDDWDETGLGCRTPGGRKRARIFDFYVCPGHTVLAGCGGPREGYCGKWGCETTGQAYWKPSSSWDLISLKRGNTPKGQGPCYDSSGGSGQRPRLSHKGPMPFSGGSGSSSAQGATPGGRCNPLVLEFTDAGKRASWDASKAWGLRLYRSTRTDPVTRFSLTRQVLNIGPRVPIGPNPVIIDQLPPSRPVQVMLPRPPQPPPPGAASTVPETAPPSQQPGTGDRLLNLVNGAYQALNLTSPDKTQECWLCLVAGPPYYEGVAVLGTYSNHTSAPANCSVASQHKLTLSEVTGQGLCVGAVPKTHQALCNTTQKTSNGSYYLAAPAGTIWACNTGLTPCLSTTVLDLTTDYCVLVELWPKVTYHSPGYVYGQFEEKTKYKREPVSLTLALLLGGLTMGGIAAGVGTGTTALVATQQFQQLQAAMQDDLKEVEKSITNLERSLTSLSEVVLQNRRGLDLLFLKEGGLCAALKEECCFYADHTGLVRDSMAKLRERLSQRQKLFESQQGWFEGLFNKSPWFTTLISTIMGPLIILLLILLFGPCILNHLVQFIKDRVSVVQALVLTQQYHQLKTIEDCESRE
- Titer on D17 APJ (Titer Experiment 1; unit not given) (APJ): 2.5e+06
- Titer on NIH 3T3 (Titer Experiment 1; unit not given) [1]: 3e+06

B2: SL3-2/apelin chimeric envelope AP@165 GI (other)
chain: B1 chain with R200G, T201I
- Titer, D17 APJ (D17 APJ): 1.25 × 10^6
- Titer on D17 APJ (Titer Experiment 1; unit not given) (APJ): 1.25e+06
- Titer on NIH 3T3 (Titer Experiment 1; unit not given) [1]: 4e+06
- Titer, NIH 3T3 MCF 247 (NIH 3T3 MCF 247): 0
- Titer, NIH 3T3 (NIH 3T3): 4 × 10^6
- Titer, D17 (D17): 1.25 × 10^1

B3: SL3-2/apelin chimeric envelope peptide, "Apelin@155 RT" (other)
chain: VQHDSPHQVFNVTWRVTNLMTGQTANATSLLGTMTDAFPKLYFDLCDLIGDDWDETGLGCRTPGGRKRARIFDFYVCPGHTVLAGCGGPREGYCGKWGCETTGQAYWKPSSSWDLISLKRGNTQGIYQCSGGSGQRPRLSHKGPMPFSGGSGCGPCYDSSVVSSSAQGATPGGRCNPLVLEFTDAGKRASWDASKAWGLRLYRSTRTDPVTRFSLTRQVLNIGPRVPIGPNPVIIDQLPPSRPVQVMLPRPPQPPPPGAASTVPETAPPSQQPGTGDRLLNLVNGAYQALNLTSPDKTQECWLCLVAGPPYYEGVAVLGTYSNHTSAPANCSVASQHKLTLSEVTGQGLCVGAVPKTHQALCNTTQKTSNGSYYLAAPAGTIWACNTGLTPCLSTTVLDLTTDYCVLVELWPKVTYHSPGYVYGQFEEKTKYKREPVSLTLALLLGGLTMGGIAAGVGTGTTALVATQQFQQLQAAMQDDLKEVEKSITNLERSLTSLSEVVLQNRRGLDLLFLKEGGLCAALKEECCFYADHTGLVRDSMAKLRERLSQRQKLFESQQGWFEGLFNKSPWFTTLISTIMGPLIILLLILLFGPCILNHLVQFIKDRVSVVQALVLTQQYHQLKTIEDCESRE
- Titer on D17 APJ (Titer Experiment 1; unit not given) (APJ): 1750
- Titer on NIH 3T3 (Titer Experiment 1; unit not given) [1]: 500000

B4: AP@155: SL3-2 envelope with apelin inserted at position 155 (variant not specified) (protein)
chain: B3 chain with R206G, T207I
- APJ-dependent entry / membrane fusion into D17 dog cells (D17 APJ; qualitative, FIG. 12): suboptimal relative to AP@165

B5: SL3-2/apelin chimeric envelope peptide, "Apelin@155 GI" (other)
chain: B3 chain with R206G, T207I
- Titer on D17 APJ (Titer Experiment 1; unit not given) (APJ): 400
- Titer on NIH 3T3 (Titer Experiment 1; unit not given) [1]: 750000

B6: 155GI (protein)
chain: B3 chain with R206G, T207I
- Titer, D17 APJ (D17 APJ): 4 × 10^2
- Titer, NIH 3T3 MCF 247 (NIH 3T3 MCF 247): 0.25 × 10^1
- Titer, NIH 3T3 (NIH 3T3): 7.5 × 10^5
- Titer, D17 (D17): 2.5

B7: SL3-2GI (protein)
chain: VQHDSPHQVFNVTWRVTNLMTGQTANATSLLGTMTDAFPKLYFDLCDLIGDDWDETGLGCRTPGGRKRARIFDFYVCPGHTVLAGCGGPREGYCGKWGCETTGQAYWKPSSSWDLISLKRGNTPKGQGPCYDSSVVSSSAQGATPGGRCNPLVLEFTDAGKRASWDASKAWGLRLYRSTGIDPVTRFSLTRQVLNIGPRVPIGPNPVIIDQLPPSRPVQIMLPRPPQPPPPGAASTVPETAPPSQQPGTGDRLLNLVNGAYQALNLTSPDKTQECWLCLVAGPPYYEGVAVLGTYSNHTSAPANCSVASQHKLTLSEVTGQGLCVGAVPKTHQALCNTTQKTSNGSYYLAAPAGTIWACNTGLTPCLSTTVLDLTTDYCVLVELWPKVTYHSPGYVYGQFEEKTKYKREPVSLTLALLLGGLTMGGIAAGVGTGTTALVATQQFQQLQAAMQDDLKEVKKSITNLERSLTSLSEVVLQNRRGLDLLFLKEGGLCAALKEECCFYADHTGLVRDSMAKLRERLSQRQKLFESQQGWFEGLFNKSPWFTTLISTIMGPLIILLLILLFGPCILNHLVQFIKDRVSVVQALVLTQQYHQLKTIEDCESRE
- Infection of human cells (human cells): infects human cells
- Infection of dog cells (D17; qualitative): not dog cells
